Assay results reported in publication PMC4358012.

T1: CebR-His6 (Streptomyces scabies 87-22, UniProt C9Z452 1-352)
T1 sequence: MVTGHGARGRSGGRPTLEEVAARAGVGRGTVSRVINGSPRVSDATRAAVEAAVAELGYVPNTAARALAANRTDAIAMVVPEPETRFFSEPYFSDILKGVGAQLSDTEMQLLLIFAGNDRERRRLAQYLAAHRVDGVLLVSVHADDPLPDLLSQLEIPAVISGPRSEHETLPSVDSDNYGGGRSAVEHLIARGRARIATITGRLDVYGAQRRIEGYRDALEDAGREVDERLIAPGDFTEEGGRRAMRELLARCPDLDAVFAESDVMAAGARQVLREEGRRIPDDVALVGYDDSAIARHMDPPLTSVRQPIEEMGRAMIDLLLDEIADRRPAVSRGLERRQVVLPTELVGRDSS

B1: cbstxtB probe (dsDNA)
DNA 1: CTCCCCCAGGGGGAGCGCTCCCACTGCGCTGTA
DNA 2: TACAGCGCAGTGGGAGCGCTCCCCCTGGGGGAG
B2: cbstxtR-A probe (dsDNA)
DNA 1: TGTCAATAAGCGGGAGCGCTCCCACAGCGCTCTC
DNA 2: GAGAGCGCTGTGGGAGCGCTCCCGCTTATTGACA

Biological target: T1, CebR-His6
Experiment: EMSA

| Binder | binding result |
| --- | --- |
| B1 | binds |
| B2 | binds |
